# Results published in patent US20230250190A1 (published 2023).
# Columns and labels:
# Experiment in all cases: glycopeptide array
# [1] = molecular target: T1, T8 (Tn-MUC1) (PAPGST(α-GalNAc)APPAHGVTSAPDT(α-GalNAc)RPAPG-OH)
# T1 peptide: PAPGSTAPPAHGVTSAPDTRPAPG
# [2] = molecular target: T2, T9 (Tn-MUC1) (PAPGSTAPPAHGVT(α-GalNAc)S(α-GalNAc)APDTRPAPG-OH)
# T2 peptide: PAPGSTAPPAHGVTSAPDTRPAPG
# [3] = molecular target: T3, T3 (Tn-MUC1) (PAPGST(α-GalNAc)APPAHGVTSAPDTRPAPG-OH)
# T3 peptide: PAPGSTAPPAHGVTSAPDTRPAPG
# [4] = molecular target: T4, T4 (Tn-MUC1) (PAPGSTAPPAHGVT(α-GalNAc)SAPDTRPAPG-OH)
# T4 peptide: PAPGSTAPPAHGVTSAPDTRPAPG
# [5] = molecular target: T5, T11 (Tn-MUC1) (PAPGSTAPPAHGVT(α-GalNAc)SAPDT(α-GalNAc)RPAPG-OH)
# T5 peptide: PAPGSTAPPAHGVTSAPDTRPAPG
# [6] = molecular target: T6, T7 (Tn-MUC1) (PAPGS(α-GalNAc)T(α-GalNAc)APPAHGVTSAPDTRPAPG-OH)
# T6 peptide: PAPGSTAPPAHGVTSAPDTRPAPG
# [7] = molecular target: T7, S4 (sTn-MUC1) (PAPGSTAPPAHGVT(Neu5Ac-α(2-6)-GalNAc)SAPDTRPAPG-OH)
# T7 peptide: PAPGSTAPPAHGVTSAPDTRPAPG
# [8] = molecular target: T8, S11 (sTn-MUC1) (PAPGSTAPPAHGVT(Neu5Ac-α(2-6)-GalNAc)SAPDT(Neu5Ac-a(2-6)-GalNAc)RPAPG-OH)
# T8 peptide: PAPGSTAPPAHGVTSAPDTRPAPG
# [9] = molecular target: T9, S9 (sTn-MUC1) (PAPGSTAPPAHGVT(Neu5Ac-α(2-6)-GalNAc)S(Neu5Ac-a(2-6)-GalNAc)APDTRPAPG-OH)
# T9 peptide: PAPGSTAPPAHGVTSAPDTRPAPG
binder,measurement,setting,value
"SEQ ID NO 9 (bivalent monospecific MUC1 IgG) (antibody, V domains shown) VH: QVQLVQSGAEVKKPGASVKVSCKASGYTFNRHYIQWVRQAPGQGLEWMGTINPYDGSTHYAQKFQGRVTLTRDTSTTTVYMELSSLRSEDTAVYYCARDYMIGYVVFDYWGQGTLVTVSS VL: not shown",EC50,[1],0.034 µg/mL
same,EC50,[2],0.039 µg/mL
same,EC50,[3],21.6 µg/mL
same,EC50,[4],0.031 µg/mL
same,EC50,[5],0.041 µg/mL
same,EC50,[6],64 µg/mL
same,EC50,[7],0.031 µg/mL
same,EC50,[8],0.053 µg/mL
same,EC50,[9],0.046 µg/mL
